Laboratory results as given in patent US9206239B2, “Treatment of cancers with immunostimulatory HIV Tat derivative polypeptides” (PIN Pharma, Inc., priority 2009, dated 2015).

How the values were obtained:
[1] = test system: Human monocytes; experiment: CD86 expression on human monocytes cultured with Tat derivative; assay type: cell-based; conditions: human monocytes cultured 24-28 hours; compared with ISS (TLR) or LPS
Procedure: Human monocytes were cultured for 24-28 hours with a Tat derivative (Nani-P2), an immunostimulatory sequence (ISS) of a toll-like receptor (TLR) (FIG. 1) or lipopolysaccharide (LPS) (FIG. 2) and the cells were then washed and stained with fluorescent-labeled CD86.

[2] = test system: 4T1 breast tumor cells; experiment: 4T1 breast tumor growth in BALB/c mice; assay type: in vivo
Excerpt: Female BALB/c mice 6 to 8 weeks old were purchased from the Jackson Laboratory (Bar Harbor, […].). Mice were acclimated for at least 1 week before use. Mice were kept in pathogen-free conditions at the Animal Maintenance Facility of the Columbia University of Medical Center and all experiments were approved by the Institutional Animal Care and Use Committee of Columbia University of Medical Center.
(§1) 4T1 cells, a 6-thioguanine-resistant cell line derived from a BALB/c spontaneous mammary carcinoma was obtained from ATCC; TS/A, a murine adenocarcinoma cell line was provided by Dr. Sandra Demaria (Demaria S. et al. Clin Cancer Res. 11:728-34, 2005); and SM1, the BALB/C-derived mammary carcinoma was kindly was provided by Dr. James Allison, University of California, Berkeley. All tumor cell lines were cultured in DMEM, supplemented with 2 mM L-glutamine, 10 mM HEPES, 150 units/ml penicillin/streptomycin, 10% heat-inactivated FCS (Invitrogen), 50 μM 2-mercaptoethanol (Sigma), and 50 mg/L gentamicin (Lanza).
(§2) BALB/c were injected (SC) with 1×10^4 4T1, 1×10^5 TS/A or 2×10^5 SM1 cells, respectively, in the left mammary pad on day 0. Immunotherapy was performed by directly injecting a Tat derivative into the right flank at 0, 7, 12, and 17 days after establishment of tumors. The control group received PBS injection. […] Tumor burden (tumor volume) was measured and recorded three times weekly. Animals were sacrificed when tumors reached a volume of 15 mm in diameter and the tumors harvested and weighed.
The therapeutic effect of systemic administration of synthetic, Tat-derived compositions in murine models of breast cancer was investigated. To compare the relative protection conferred by a small panel of different derivatives against primary breast tumor growth, female BALB/c mice were injected with 1×10^4 4T1 breast tumor cells SC into the mammary pad, and then treated with 400 ng partially-purified Tat derivatives at day 0, 7, 14 and 21 (SC injection in PBS) into the draining axillary lymph nodes.

[3] = test system: 4T1 breast tumors; experiment: Kaplan-Meier survival of mice bearing 4T1 breast tumors; assay type: in vivo, BALB/c mice; conditions: for survival: day 47
Procedure: as §2
Data were statistically analyzed using Student's t-test (Graph Pad Prism version 5; GraphPad). Data from animal survival experiments were statistically analyzed using log-rank test (Graph Pad Prism version 5).
To determine whether Nani-P2 treatment could extend survival in addition to shrinking primary tumors in mice, treatment protocols using various dosing schedules and routes (SC, IV or IT) of administration of 40 ng Nani-P2 were performed. Cohorts of ten mice per group were followed for length of survival, as assessed by use of the Kaplan-Meier product limit method. As per Columbia University Medical Center Animal Facility regulations, each mouse was euthanized at a mean tumor diameter of approximately 15 mm, or earlier if the mouse became moribund, making one of these two outcomes the defining criteria for fatality.

[4] = test system: TS/A breast cancer cells; experiment: TS/A breast carcinoma model; assay type: in vivo, mice; conditions: for primary anti-cancer difference vs control: p<0.01
Procedure: as §1, §2

[5] = test system: IFN-γ production by spleen cells; experiment: ELISA analysis of IFN-γ production by immune spleen cells of 4T1 tumor-bearing mice; assay type: in vivo, BALB/c mice
Procedure: FIG. 7 depicts INF-γ production from spleen cells of mice bearing 4T1 breast tumors. BALB/c mice were injected SC with 1×10^4 4T1 cells. Control animals received weekly injections of PBS, while the Nani-P2 treatment comprised once weekly SC injections (40 ng) initiated at day 0 and continued for 4 weeks. On day 33, when control mice were at endstage, the mice were sacrificed, the spleens harvested and frozen as single cell suspensions until time of assay. Spleen cells (2×10^5) and 1×10^4 mitomycin C-treated (50 μg/ml for 30 min) 4T1 stimulator cells (S) were plated into 96-well plates. After 72 hr of stimulation, the supernatants were collected and IFN-γ concentration was determined using a commercial IFN-γ ELISA kit. […] 1: no restimulation; 2: IL-4 (50 ng/ml)/GM-CSF ([…]); 3: stimulator cells/IL-4/GM-CSF; 4: stimulator cells only.
Splenocyte secretion of IFN-γ was assessed by an OPTEIA® ELISA kit (BD Biosciences). Briefly, spleen cells (1×10^5/well) from 4T1 tumor-bearing mice were cultured with or without 5×10^3/well mitomycin C (50 μg/ml)-treated 4T1 cells (used to provide tumor antigens) in DMEM in at a 20:1 E:T (effector:tumor) ratio with […] (50 ng/mL) and GM-CSF (100 ng/ml) in 96-well plates. Supernatants were collected after 72 hr and kept frozen at −80° C. until analysis without loss of activity. IFN-γ was measured in cell-free supernatants of duplicate wells by ELISA according to the manufacturer's instructions. Tumor-specific IFN-γ production was calculated by subtracting the background values measured in supernatants of spleen cells cultured with medium alone and optical density (OD) values were converted to pg/ml amounts of IFN-γ using a recombinant IFN-γ standard curve. Stimulation index (SI) was calculated as the ratio of IFN-γ in stimulated versus control cultures.
To determine whether cytotoxic T-lymphocytes play a role in tumor rejection induced by Nani-P2 therapy, an IFN-γ ELISA assay (FIG. 7) was performed to compare spleen cells of 4T1 tumor-bearing mice treated either without (Control) or with Nani-P2 (FIG. 7). […]

[6] = Toxicity observation in treated mice; assay type: in vivo; conditions: SC or IV administration of 40 ng, multiple trials and dosing schedules

B1: Nani-P2: HIV Tat derivative polypeptide, SEQ ID NO: 3; derivatized Tat amino terminus from an African Green Monkey variant SIV (protein)
chain: MDPKGEEDQDVSHQDLIKQYRKPRTACNNCYCKKCCFHCYACFLRKGLGITYHAFRTRRKKIASADRIPVPQQSISIRGRDSQTTQESQKKVEEQAKANLRISRKNLGDETRGPVGAGN
modifications: Nani-P2 modified HIV Tat sequence
notes: derivatized Tat amino terminus from an African Green Monkey variant SIV
- expression of CD86 [1]: higher expression of CD86 than either ISS (TLR) or LPS
- tumor burden compared to control mice receiving PBS ([2]; 400 ng partially-purified derivative SC day 0, 7, 14, 21, apparent from day 15 (p<0.05)): significantly reduced tumor burden
- decrease of tumor burden on average ([2]; SC therapy initiated on day 0 after tumor cell injection): 53%
- difference in primary tumor burden between Nani-P2 and Nani-P1-treated tumors ([2]; day 21 (final dosing), 400 ng SC, p<0.01): 18 mm^3
- anti-tumor efficacy on increasing the dose ([2]; dose increased to 400 ng and 2 μg (data not shown)): no further anti-tumor efficacy
- survival, intratumoral administration ([3]; IT, 40 ng weekly x3, tumors established fourteen days): slightly inferior to SC administration
- survival ([3]; IV, 40 ng weekly x3, tumors established fourteen days, p<0.005): 60%
- survival ([3]; SC, 40 ng weekly x3, tumors established fourteen days, p<0.05): 20%
- treated mice still alive ([3]; day 48, 40 ng SC, 4 doses over 21 days from day 0, p<0.001): 35%
- duration of tumor growth inhibition and survival benefits past the last dosing ([3]; established 4T1 tumors, treated intravenously): at least 36 days
- suppression of growth ([4]; 0.4 ng SC): ~50%
- primary anti-cancer difference vs control ([4]; 40 ng SC): highly significant
- total remission rate ([4]; at 30 days): 40%
- primary anti-cancer difference vs control ([4]; lowest dose (0.4 ng SC)): highly significant
- baseline levels of INF-γ secreted by splenocytes vs PBS-treated control mice ([5]; 40 ng SC weekly for 4 weeks, no restimulation): 8 fold
- INF-γ production in cultures of spleen cells vs control ([5]; all conditions of assay): significantly (p<0.01**) higher
- stimulation index vs control ([5]; tumor stimulators + IL4 + GM-CSF added at initiation of culture): 53
- toxicity [6]: no toxicity was observed
